This is an account of results in US20190321455A1 (KOREA RESEARCH INSTITUTE OF BIOSCIENCE AND BIOTECHNOLOGY, published 2019).

Assay [1] has as its target T1, EPRS, endogenous protein of U937 cells (human, UniProt P07814 1-1512, phospho-Ser990 induced by PR8 infection; phospho-Ser886 also detected).
T1 construct: Endogenous protein immunoprecipitated with anti-EPRS antibody; also called glutamyl-prolyl-tRNA synthetase
Nature of the assay: endogenous co-IP with anti-EPRS antibody, PR8-infected U937 cells.

Assay [2] concerns the target T2, Strep-tagged EPRS mono-phosphomimetic S990D (Homo sapiens (Human), UniProt P07814 1-1512).
T2 construct: Expressed in 293T cells; also called EPRS S990D; not shown: Strep tag
As to the kind of experiment: Strep precipitation from 293T cells, immunoblot. A general note: In western blotting, separated proteins are transferred to a membrane and probed.

For assay [3], the target named is T3, His-tagged EPRS (aa 1-168; GST-like domain alone), purified from E. coli (Homo sapiens (Human), UniProt P07814 1-168).
T3 construct: not shown: hexahistidine tag
T3 sequence: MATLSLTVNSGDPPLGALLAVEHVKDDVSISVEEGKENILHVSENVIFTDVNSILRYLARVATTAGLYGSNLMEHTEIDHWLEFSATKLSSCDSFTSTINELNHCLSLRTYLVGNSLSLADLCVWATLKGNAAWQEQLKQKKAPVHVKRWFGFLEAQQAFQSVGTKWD
Nature of the assay: in vitro His-tag (Ni-NTA) precipitation with purified proteins.

For assay [4], the target named is T4, His-tagged EPRS (aa 1-196), purified from E. coli (Homo sapiens (Human), UniProt P07814 1-196).
T4 construct: also called GST and L1 regions of EPRS; not shown: hexahistidine tag
T4 sequence: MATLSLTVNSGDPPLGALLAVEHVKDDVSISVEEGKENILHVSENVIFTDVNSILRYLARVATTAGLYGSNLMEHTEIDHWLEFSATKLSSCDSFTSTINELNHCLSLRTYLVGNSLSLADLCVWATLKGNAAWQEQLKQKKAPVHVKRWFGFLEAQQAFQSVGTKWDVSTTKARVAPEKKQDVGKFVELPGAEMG
As to the kind of experiment: in vitro His-tag (Ni-NTA) precipitation with purified proteins, Coomassie.

Assay [5] addresses T5, Strep-EPRS (Strep-tagged full-length glutamyl-prolyl-tRNA synthetase, wild type) (Homo sapiens (Human), UniProt P07814 1-1512).
T5 construct: Expressed in HEK293T cells and pulled down with Strep-Tactin; Mass spectrometry found phospho-Ser886, and phospho-Ser990 after PR8 infection; also called Strep-EPRS WT; not shown: Strep tag
As to the kind of experiment: Strep-EPRS complexes from PR8-infected 293T cells, mass spectrometry.

Assay [6] concerns the target T1, EPRS, endogenous protein of U937 cells. As to the kind of experiment: endogenous co-IP with anti-EPRS antibody from PR8-infected U937 cells, anti-GAPDH immunoblot.
For assay [7], the target named is T5, Strep-EPRS (Strep-tagged full-length …). As to the kind of experiment: Strep precipitation of 293T lysates expressing Strep-EPRS and forms of GST-PCBP2, anti-GST immunoblot.
The target in assay [8] is T6, MAVS-FLAG (mitochondrial antiviral-signaling protein expressed in 293T cells) (UniProt Q7Z434 1-540).
T6 construct: also called exogenous MAVS; not shown: FLAG tag
T6 sequence (Q7Z434 whole entry): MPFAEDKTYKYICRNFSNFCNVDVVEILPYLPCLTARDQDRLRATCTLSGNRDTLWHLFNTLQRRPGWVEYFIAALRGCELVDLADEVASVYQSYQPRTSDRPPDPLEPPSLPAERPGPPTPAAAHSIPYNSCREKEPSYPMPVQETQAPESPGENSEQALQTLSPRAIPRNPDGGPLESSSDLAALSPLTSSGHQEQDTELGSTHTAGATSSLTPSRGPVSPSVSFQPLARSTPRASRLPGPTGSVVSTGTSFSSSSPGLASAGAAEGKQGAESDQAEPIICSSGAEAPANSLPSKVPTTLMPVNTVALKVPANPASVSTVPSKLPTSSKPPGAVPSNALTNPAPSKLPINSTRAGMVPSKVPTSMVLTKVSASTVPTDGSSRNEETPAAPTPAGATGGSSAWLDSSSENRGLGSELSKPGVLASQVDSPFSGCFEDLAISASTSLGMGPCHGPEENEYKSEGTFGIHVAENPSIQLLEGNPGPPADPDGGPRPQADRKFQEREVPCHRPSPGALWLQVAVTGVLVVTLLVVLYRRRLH
Nature of the assay: anti-FLAG co-IP of 293T lysates expressing MAVS and forms of GST-PCBP2, anti-GST immunoblot.

In assay [9] the target is T7, MAVS, endogenous protein of RAW264.7 cells (UniProt Q8VCF0 1-503).
T7 sequence (looked up): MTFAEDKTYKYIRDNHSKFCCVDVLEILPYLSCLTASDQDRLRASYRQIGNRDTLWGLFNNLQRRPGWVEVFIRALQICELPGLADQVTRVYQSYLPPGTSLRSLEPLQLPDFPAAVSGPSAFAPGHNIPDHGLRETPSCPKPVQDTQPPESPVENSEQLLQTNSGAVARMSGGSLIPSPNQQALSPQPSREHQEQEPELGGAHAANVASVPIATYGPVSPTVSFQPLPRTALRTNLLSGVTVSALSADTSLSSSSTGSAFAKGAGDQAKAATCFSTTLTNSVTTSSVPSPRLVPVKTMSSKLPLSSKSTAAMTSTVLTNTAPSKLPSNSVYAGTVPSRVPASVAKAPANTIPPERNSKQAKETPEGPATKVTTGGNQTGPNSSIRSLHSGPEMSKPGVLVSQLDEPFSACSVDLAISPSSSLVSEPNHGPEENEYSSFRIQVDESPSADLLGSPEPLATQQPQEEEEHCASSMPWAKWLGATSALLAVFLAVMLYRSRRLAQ
As to the kind of experiment: endogenous immunoprecipitation with anti-PCBP2 antibody, PR8-infected RAW264.7 cells.

Assay [10] has as its target T8, EPRS, endogenous protein of RAW264.7 cells (UniProt Q8CGC7 1-1512, phospho-Ser990 induced by PR8 infection).
T8 construct: Endogenous protein in cell lysates; The mouse origin is inferred from the cell line
Described as above.

T8 sequence (Q8CGC7 whole entry): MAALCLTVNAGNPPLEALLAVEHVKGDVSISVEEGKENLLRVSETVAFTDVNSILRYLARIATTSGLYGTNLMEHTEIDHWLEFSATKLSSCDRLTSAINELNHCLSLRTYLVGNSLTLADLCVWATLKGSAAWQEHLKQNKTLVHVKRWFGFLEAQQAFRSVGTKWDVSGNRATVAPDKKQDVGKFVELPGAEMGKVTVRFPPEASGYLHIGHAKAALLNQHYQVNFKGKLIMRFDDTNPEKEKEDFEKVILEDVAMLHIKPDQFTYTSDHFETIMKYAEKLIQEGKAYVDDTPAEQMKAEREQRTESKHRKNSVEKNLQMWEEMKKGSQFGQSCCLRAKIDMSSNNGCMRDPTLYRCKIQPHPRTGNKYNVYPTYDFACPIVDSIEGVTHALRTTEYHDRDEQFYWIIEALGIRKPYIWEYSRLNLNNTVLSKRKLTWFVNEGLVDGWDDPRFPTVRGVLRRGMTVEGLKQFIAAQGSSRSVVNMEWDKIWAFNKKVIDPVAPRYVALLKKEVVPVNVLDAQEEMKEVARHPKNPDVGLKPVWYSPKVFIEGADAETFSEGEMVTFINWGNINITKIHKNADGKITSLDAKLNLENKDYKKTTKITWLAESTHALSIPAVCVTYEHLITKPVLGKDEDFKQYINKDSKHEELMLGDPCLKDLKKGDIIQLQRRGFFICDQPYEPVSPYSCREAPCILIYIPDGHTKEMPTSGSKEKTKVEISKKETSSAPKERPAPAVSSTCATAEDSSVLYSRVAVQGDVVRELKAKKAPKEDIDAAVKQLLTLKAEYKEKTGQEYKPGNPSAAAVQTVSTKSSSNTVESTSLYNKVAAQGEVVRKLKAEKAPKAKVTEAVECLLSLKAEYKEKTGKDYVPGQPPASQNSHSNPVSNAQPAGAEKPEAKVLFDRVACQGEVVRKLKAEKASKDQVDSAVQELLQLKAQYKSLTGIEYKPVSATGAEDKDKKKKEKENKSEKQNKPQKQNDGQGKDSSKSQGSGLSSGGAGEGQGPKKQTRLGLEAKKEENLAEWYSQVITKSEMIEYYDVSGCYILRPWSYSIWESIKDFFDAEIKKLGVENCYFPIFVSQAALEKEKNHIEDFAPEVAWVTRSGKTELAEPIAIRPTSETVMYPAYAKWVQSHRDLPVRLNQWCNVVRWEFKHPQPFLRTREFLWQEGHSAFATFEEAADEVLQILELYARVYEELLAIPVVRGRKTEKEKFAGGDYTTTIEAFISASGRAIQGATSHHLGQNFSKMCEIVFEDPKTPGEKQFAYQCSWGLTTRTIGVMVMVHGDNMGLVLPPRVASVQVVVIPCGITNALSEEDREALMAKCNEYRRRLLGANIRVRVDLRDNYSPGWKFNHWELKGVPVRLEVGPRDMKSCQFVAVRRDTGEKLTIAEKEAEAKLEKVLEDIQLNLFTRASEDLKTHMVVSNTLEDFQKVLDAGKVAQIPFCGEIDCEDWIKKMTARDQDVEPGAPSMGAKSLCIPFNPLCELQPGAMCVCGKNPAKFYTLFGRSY

B1: PCBP2, endogenous protein of human cells (293T, U937) (other, UniProt Q15366 1-365, looked up)
chain: MDTGVIEGGLNVTLTIRLLMHGKEVGSIIGKKGESVKKMREESGARINISEGNCPERIITLAGPTNAIFKAFAMIIDKLEEDISSSMTNSTAASRPPVTLRLVVPASQCGSLIGKGGCKIKEIRESTGAQVQVAGDMLPNSTERAITIAGIPQSIIECVKQICVVMLETLSQSPPKGVTIPYRPKPSSSPVIFAGGQDRYSTGSDSASFPHTTPSMCLNPDLEGPPLEAYTIQGQYAIPQPDLTKLHQLAMQQSHFPMTHGNTGFSGIESSSPEVKGYWGLDASAQTTSHELTIPNDLIGCIIGRQGAKINEIRQMSGAQIKIANPVEGSTDRQVTITGSAASISLAQYLINVRLSSETGGMGSS
notes: also called PBP2
For B1, the binding result in [1] is given as “binds”.

B2: AIMP3 (ARS-interacting multifunctional protein 3), endogenous protein of human cells (U937, 293T) (other, UniProt O43324 2-174, looked up)
chain: AAAAELSLLEKSLGLSKGNKYSAQGERQIPVLQTNNGPSLTGLTTIAAHLVKQANKEYLLGSTAEEKAIVQQWLEYRVTQVDGHSSKNDIHTLLKDLNSYLEDKVYLTGYNFTLADILLYYGLHRFIVDLTVQEKEKYLNVSRWFCHIQHYPGIRQHLSSVVFIKNRLYTNSH
For B2, in assay [2], the binding result is “no binding”.

B3: GST-fused PCBP2 KH1 (aa 11-82), purified from E. coli (other, UniProt Q15366 11-82, looked up)
chain: NVTLTIRLLMHGKEVGSIIGKKGESVKKMREESGARINISEGNCPERIITLAGPTNAIFKAFAMIIDKLEED
notes: range 11-82; also called PCBP2 KH1 (aa 11-82) domain; not shown: GST
As to B3, the results for the binding result in assay [3] and in assay [4] were “no binding” and “binds”, respectively.

B4: GAPDH (glyceraldehyde-3-phosphate dehydrogenase), endogenous protein of human cells (U937, 293T) (enzyme)
chain: not shown
With B4, the binding result in [5] and in assay [6] was “no binding” in each case.

B5: GST-PCBP2 N-terminal KH1 domain (aa 1-81), expressed in 293T cells (other, UniProt Q15366 1-81, looked up)
chain: MDTGVIEGGLNVTLTIRLLMHGKEVGSIIGKKGESVKKMREESGARINISEGNCPERIITLAGPTNAIFKAFAMIIDKLEE
notes: range 1-81; also called PCBP2 KH1; not shown: GST tag
For B5, the binding result in [7] and in assay [8] was “binds” throughout.

B6: MRS (methionyl-tRNA synthetase), endogenous protein of 293T cells (enzyme, UniProt P56192 1-900, looked up)
chain: MRLFVSDGVPGCLPVLAAAGRARGRAEVLISTVGPEDCVVPFLTRPKVPVLQLDSGNYLFSTSAICRYFFLLSGWEQDDLTNQWLEWEATELQPALSAALYYLVVQGKKGEDVLGSVRRALTHIDHSLSRQNCPFLAGETESLADIVLWGALYPLLQDPAYLPEELSALHSWFQTLSTQEPCQRAAETVLKQQGVLALRPYLQKQPQPSPAEGRAVTNEPEEEELATLSEEEIAMAVTAWEKGLESLPPLRPQQNPVLPVAGERNVLITSALPYVNNVPHLGNIIGCVLSADVFARYSRLRQWNTLYLCGTDEYGTATETKALEEGLTPQEICDKYHIIHADIYRWFNISFDIFGRTTTPQQTKITQDIFQQLLKRGFVLQDTVEQLRCEHCARFLADRFVEGVCPFCGYEEARGDQCDKCGKLINAVELKKPQCKVCRSCPVVQSSQHLFLDLPKLEKRLEEWLGRTLPGSDWTPNAQFITRSWLRDGLKPRCITRDLKWGTPVPLEGFEDKVFYVWFDATIGYLSITANYTDQWERWWKNPEQVDLYQFMAKDNVPFHSLVFPCSALGAEDNYTLVSHLIATEYLNYEDGKFSKSRGVGVFGDMAQDTGIPADIWRFYLLYIRPEGQDSAFSWTDLLLKNNSELLNNLGNFINRAGMFVSKFFGGYVPEMVLTPDDQRLLAHVTLELQHYHQLLEKVRIRDALRSILTISRHGNQYIQVNEPWKRIKGSEADRQRAGTVTGLAVNIAALLSVMLQPYMPTVSATIQAQLQLPPPACSILLTNFLCTLPAGHQIGTVSPLFQKLENDQIESLRQRFGGGQAKTSPKPAVVETVTTAKPQQIQALMDEVTKQGNIVRELKAQKADKNEVAAEVAKLLDLKKQLAVAEGKPPEAPKGKKKK
notes: 293T cells are a human line
On to B6, for which the binding result in assay [2] is listed as “no binding”.

B7: GST-PCBP2 linker region, expressed in 293T cells (other, UniProt Q15366 168-279, looked up)
chain: ETLSQSPPKGVTIPYRPKPSSSPVIFAGGQDRYSTGSDSASFPHTTPSMCLNPDLEGPPLEAYTIQGQYAIPQPDLTKLHQLAMQQSHFPMTHGNTGFSGIESSSPEVKGYW
notes: domain: linker region; not shown: GST tag
Turning to B7, the binding result in assay [7] is given as “no binding”.

B8: PCBP2, endogenous protein of RAW264.7 cells (other, UniProt Q61990 1-362, looked up)
chain: MDTGVIEGGLNVTLTIRLLMHGKEVGSIIGKKGESVKKMREESGARINISEGNCPERIITLAGPTNAIFKAFAMIIDKLEEDISSSMTNSTAASRPPVTLRLVVPASQCGSLIGKGGCKIKEIRESTGAQVQVAGDMLPNSTERAITIAGIPQSIIECVKQICVVMLESPPKGVTIPYRPKPSSSPVIFAGGQDRYSTGSDSASFPHTTPSMCLNPDLEGPPLEAYTIQGQYAIPQPDLTKLHQLAMQQSHFPMTHGNTGFSGIESSSPEVKGYWAGLDASAQTTSHELTIPNDLIGCIIGRQGAKINEIRQMSGAQIKIANPVEGSTDRQVTITGSAASISLAQYLINVRLSSETGGMGSS
notes: also called PBP2
With B8, the binding result in assay [9] and in [10] was “binds” in each case.
